Measured values taken from US20110064743A1.

How the values were obtained:
[1] = biological target: SK-BR-3 cells (antigen not identified); test: saturation binding to cells by FACS, double-reciprocal plot; 'Rel. Affinity (nM)'; antigen on the cells not identified
[2] = biological target: OVCAR-3 cells (antigen not identified); test: as above
[3] = biological target: OVCAR-3 cells (antigen not identified); test: immunohistochemistry on OVCAR3 cells

| Binder | Kd [1] | Kd [2] | # Samples Staining Positive [3] |
| --- | --- | --- | --- |
| 1250_I13 (antibody, V domains shown) VH: QVQLQQWGAGLLKPSETLSLTCAVYGGSFSGYFWTWVRQLPGRGLEWIGEINHRGTSSYNPSLRSRLTISVDTSKNQFSLKLSSVTAADTAVYYCARITEAVGFTSFDYWGQGILVTVSS VL: QSVLTQPPSMSAAPGQKVTISCSGSTSNIGSNYVSWYQQLPQRAPKLLIYDNDKRPSGIPDRFSGSKSGASATLDITGLQTGDEAYYYCGTWDSSLSRVFGGGTKLTVL | 1.1 nM |  |  |
| 1242_P11 (antibody, V domains shown) VH: QVQLTQWGAGLLKPSETLSLTCAVGGGSFSGYFWTWIRQSPGRGLEWIGEINHKGKTTYNPTLKSRLSILVDTFKNQFSLKLRSVVAADTAVYYCARIVEAVGVTSFDSWGQGILVTVSS VL: QSVLTQPPSVSAAPGQKVTISCSGSTSNIGNNHVSWYQQLPQTAPKLLIYDNNKRPSGIPDRFSGSKSGASATLGITGLQTGDEAYYYCGTWDTRLSRVFGGGTKLTVL |  | 2 nM |  |
| 1226_K16 (antibody, V domains shown) VH: QVQLQQWGAGLLKPSETLSLTCAVYGGSLSGYFWTWIRQPPGRGLEWIGEINHRRTTTSNPSLRSRLTISLDTSKNQFSLKLSSVTAADTAVYYCARITEAVGVTSFDYWGQGILVTVSS VL: QSVLTQPPSVSAAPGQKVNISCSGSTSNIGNNFVAWYQQLPQRAPKLLIYDNDKRPSGIPDRFSGSKSGASATLGITGLQSGDEAYYYCGTWDSTLSRVFGGGTKLTVL |  | 1.6 nM |  |
| 1038_D5 (TCN-445) (antibody, V domains shown) VH: QVQLVQSGAEVQKPGASMKVSCKASGYTFTDFYFHWVRQAPGQGLEWMGWINPRSGATNYAHKFRGRVTMTSDTSIKTIYMSLGWLRSGDTAVYYCARDMRRENGYNFDGTFDYWGQGTLVTVSS VL: DIQMTQSPPSLSASVGDRVTITCQASQDIKNYLNWYQQKPGKAPKLLIYDASNLETGVPSRFSGSRSGTNFTFTINSLQPEDIATYFCQRYDAFPLTFGGGSKVEIK |  | 0.8 nM | > 75% |

Second part, the binder after the results:

| Kd [1] | Kd [2] | # Samples Staining Positive [3] | Binder |
| --- | --- | --- | --- |
| 1.2 nM |  |  | 1256_B2 (antibody, V domains shown) VH: QVQLQQWGAGLLKPSETLSLTCAVYGGSFSGYFWSWIRQPPGRGLEWIGEINHRGSSTYKSSLKTRLTMSVDTSKNQFSIKLTSVTAADTAVYYCARITEAVGVTSFDSWGQGVLVTVSS VL: QSVLTQPPSVSAAPGQKVTISCSGSTSNIGNNYVSWYQQLPQRAPRLLIYDNDKRPSGIPDRFSGSKSGASATLGITGLQTGDEAYYYCGTWDNNLSRVFGGGTKLTVL |
| 1.1 nM |  |  | 1253_N12 (antibody, V domains shown) VH: QVQLQQWGAGLVKPSETLSVTCAVYGGSFSGYFWTWIRQPPGRGLEWIGEINHRGSSSYNPSLRSRLSISVDTSKNQFSLKMRSVTAADTAVYYCARITEAVGVTSFDSWGQGVLVTVSS VL: QSVLTQPPSVSAAPGQKVTISCSGSTSNIGNNYVSWYQQLPQRAPKLLIYDDDKRPSGIPDRFSGSKSGASATLAITGLQTGDEAYYYCGTWDSSLSRVFGGGTKLTVL |
